Holding throughout (assay): flow cytometry on cells
A general note: In flow cytometry, cells or beads pass a laser one at a time.

Assay [1] concerns the target T1, full-length Ste2p H94Y (Saccharomyces cerevisiae, UniProt D6VTK4 1-431, H94Y).
T1 sequence (looked up): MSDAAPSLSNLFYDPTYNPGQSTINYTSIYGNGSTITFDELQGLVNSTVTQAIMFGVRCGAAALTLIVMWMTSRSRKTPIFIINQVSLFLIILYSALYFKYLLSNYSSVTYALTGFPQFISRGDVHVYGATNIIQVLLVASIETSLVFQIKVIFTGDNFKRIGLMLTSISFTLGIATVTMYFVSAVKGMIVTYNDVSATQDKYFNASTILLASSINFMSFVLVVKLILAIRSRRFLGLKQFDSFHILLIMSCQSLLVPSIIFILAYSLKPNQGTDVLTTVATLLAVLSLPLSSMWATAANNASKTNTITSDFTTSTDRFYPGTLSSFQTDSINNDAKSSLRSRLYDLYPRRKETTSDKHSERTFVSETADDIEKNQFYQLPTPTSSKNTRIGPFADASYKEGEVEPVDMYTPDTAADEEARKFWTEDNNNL

Assay [2] deals with T2, full-length wild-type Ste2p (Saccharomyces cerevisiae, UniProt D6VTK4 1-431).
T2 sequence (looked up): T1 sequence (looked up) with Y94H

Assay [3] addresses T3, C-terminally truncated Ste2p V49D (Saccharomyces cerevisiae, UniProt D6VTK4 1-303, V49D).
T3 sequence (looked up): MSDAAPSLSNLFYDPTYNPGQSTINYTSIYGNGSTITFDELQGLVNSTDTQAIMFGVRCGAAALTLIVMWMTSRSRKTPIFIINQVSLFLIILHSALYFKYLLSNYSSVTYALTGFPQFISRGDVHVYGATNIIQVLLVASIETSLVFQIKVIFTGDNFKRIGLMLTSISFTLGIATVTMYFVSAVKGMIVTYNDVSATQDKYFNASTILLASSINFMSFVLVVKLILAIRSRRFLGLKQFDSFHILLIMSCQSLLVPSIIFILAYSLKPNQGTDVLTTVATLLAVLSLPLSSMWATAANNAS

For assay [4], the target named is T4, full-length Ste2p V49D (Saccharomyces cerevisiae, UniProt D6VTK4 1-431, V49D).
T4 sequence (looked up): T1 sequence (looked up) with V49D, Y94H

Assay [5] has as its target T5, full-length Ste2p S104Y (Saccharomyces cerevisiae, UniProt D6VTK4 1-431, S104Y).
T5 sequence (looked up): T1 sequence (looked up) with Y94H, S104Y

Where a chain is given by its changes, count along the chain named.

B1: [K^7(NBD),Nle^12] α-factor (peptide)
chain: WHWLQLKPGQPMY
modifications: NBD (7-nitrobenz-2-oxa-1,3-diazol-4-yl) conjugated to the lysine at position 7; norleucine at position 12 in place of methionine
Regarding B1, the Kd was found to be 5.2 ± 2.1 nM in assay [1]; 7.3 ± 0.9 nM in assay [2]; 23 ± 3.3 nM in assay [3]; 5.3 ± 2.3 nM in assay [4]; 2 ± 0.7 nM in assay [5].

For orientation: Kd means the constant that tells how readily two partners part at equilibrium.

Source of the values: publication PMC4405178 (Biochemistry, 2015).
